Experimental data as given in PMC10023946 (The Journal of Biological Chemistry, 2023).

Experiments:
[1] = target: T1, cytochrome P450 17A1 (CYP17A1) (Homo sapiens, UniProt P05093); format: biochemical
T1 sequence (P05093 20-508): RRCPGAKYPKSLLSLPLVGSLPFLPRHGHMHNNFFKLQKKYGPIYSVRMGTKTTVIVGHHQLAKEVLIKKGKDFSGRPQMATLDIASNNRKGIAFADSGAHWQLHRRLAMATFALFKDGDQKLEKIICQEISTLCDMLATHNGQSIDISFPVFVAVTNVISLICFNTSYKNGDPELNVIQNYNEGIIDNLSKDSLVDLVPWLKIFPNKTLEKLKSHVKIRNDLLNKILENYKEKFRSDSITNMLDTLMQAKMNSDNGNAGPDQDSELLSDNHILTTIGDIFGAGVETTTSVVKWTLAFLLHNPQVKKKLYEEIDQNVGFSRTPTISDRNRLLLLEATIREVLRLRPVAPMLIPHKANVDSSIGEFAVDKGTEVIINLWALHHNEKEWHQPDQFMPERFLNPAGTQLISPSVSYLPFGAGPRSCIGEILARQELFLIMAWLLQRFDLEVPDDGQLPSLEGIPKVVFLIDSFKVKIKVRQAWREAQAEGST

[2] = target: T2, CYP17A1 N52Y (Homo sapiens, UniProt P05093, N52Y); assay: X-ray co-crystal structure, […] Å; format: biochemical
T2 sequence (P05093 20-508 N52Y): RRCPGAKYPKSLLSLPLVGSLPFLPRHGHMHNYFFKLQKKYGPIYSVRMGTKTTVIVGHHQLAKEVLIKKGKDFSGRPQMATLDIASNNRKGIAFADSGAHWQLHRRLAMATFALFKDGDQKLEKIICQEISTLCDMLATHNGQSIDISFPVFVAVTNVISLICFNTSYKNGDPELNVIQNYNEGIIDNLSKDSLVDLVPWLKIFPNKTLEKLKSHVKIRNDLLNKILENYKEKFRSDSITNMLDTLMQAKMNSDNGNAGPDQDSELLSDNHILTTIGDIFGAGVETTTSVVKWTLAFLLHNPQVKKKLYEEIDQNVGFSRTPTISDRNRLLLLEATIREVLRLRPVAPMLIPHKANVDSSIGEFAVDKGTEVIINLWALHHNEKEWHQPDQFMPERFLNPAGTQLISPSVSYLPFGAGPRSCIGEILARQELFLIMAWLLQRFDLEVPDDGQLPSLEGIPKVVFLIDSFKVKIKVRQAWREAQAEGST

[3] = substrate: CC(=O)[C@H]1CC[C@H]2[C@@H]3CCC4=CC(=O)CC[C@]4(C)[C@H]3CC[C@]12C; assay: purified protein
[4] = substrate: CC(=O)[C@@]1(O)CC[C@H]2[C@@H]3CC=C4C[C@@H](O)CC[C@]4(C)[C@H]3CC[C@@]21C; assay: purified protein; details: heme displacement of heme-coordinated water

C[C@]12CC[C@H](O)CC1=CC[C@@H]1[C@@H]2CC[C@]2(C)C(c3cccnc3)=CC[C@@H]12 [abiraterone]
IC50 [1]: 0.069 ± 0.005 µM
IC50 [2]: 0.051 ± 0.002 µM

B1: CYP17A1 N52Y (Homo sapiens; N52Y) (protein)
chain: RRCPGAKYPKSLLSLPLVGSLPFLPRHGHMHNYFFKLQKKYGPIYSVRMGTKTTVIVGHHQLAKEVLIKKGKDFSGRPQMATLDIASNNRKGIAFADSGAHWQLHRRLAMATFALFKDGDQKLEKIICQEISTLCDMLATHNGQSIDISFPVFVAVTNVISLICFNTSYKNGDPELNVIQNYNEGIIDNLSKDSLVDLVPWLKIFPNKTLEKLKSHVKIRNDLLNKILENYKEKFRSDSITNMLDTLMQAKMNSDNGNAGPDQDSELLSDNHILTTIGDIFGAGVETTTSVVKWTLAFLLHNPQVKKKLYEEIDQNVGFSRTPTISDRNRLLLLEATIREVLRLRPVAPMLIPHKANVDSSIGEFAVDKGTEVIINLWALHHNEKEWHQPDQFMPERFLNPAGTQLISPSVSYLPFGAGPRSCIGEILARQELFLIMAWLLQRFDLEVPDDGQLPSLEGIPKVVFLIDSFKVKIKVRQAWREAQAEGST
Km ([3]; heme displacement of heme-coordinated water): 1.60 ± 0.09 µM
Km [4]: 0.6 ± 0.1 µM

B2: cytochrome P450 17A1 (CYP17A1) (Homo sapiens) (protein)
chain: RRCPGAKYPKSLLSLPLVGSLPFLPRHGHMHNNFFKLQKKYGPIYSVRMGTKTTVIVGHHQLAKEVLIKKGKDFSGRPQMATLDIASNNRKGIAFADSGAHWQLHRRLAMATFALFKDGDQKLEKIICQEISTLCDMLATHNGQSIDISFPVFVAVTNVISLICFNTSYKNGDPELNVIQNYNEGIIDNLSKDSLVDLVPWLKIFPNKTLEKLKSHVKIRNDLLNKILENYKEKFRSDSITNMLDTLMQAKMNSDNGNAGPDQDSELLSDNHILTTIGDIFGAGVETTTSVVKWTLAFLLHNPQVKKKLYEEIDQNVGFSRTPTISDRNRLLLLEATIREVLRLRPVAPMLIPHKANVDSSIGEFAVDKGTEVIINLWALHHNEKEWHQPDQFMPERFLNPAGTQLISPSVSYLPFGAGPRSCIGEILARQELFLIMAWLLQRFDLEVPDDGQLPSLEGIPKVVFLIDSFKVKIKVRQAWREAQAEGST
Km ([3]; heme): 5.2 ± 0.5 µM
